Data reported in the supplement of paper PMC9732359.
± gives the uncertainty stated by the source.

Test: protein stability index of a GFP-peptide fusion (yeast GPS) (PSI 1-4); higher = more stable; sorted into four equal gates, so the index is relative within each strain
Method in brief: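 Mid-log yeast cultures in leucine-free medium, carrying a pooled plasmid library, were sorted into four equal gates by their GFP/Cherry fluorescence ratio. Each plasmid expressed Cherry along with GFP fused upstream of a tiled 17-residue yeast protein peptide. Plasmids recovered from each gate were PCR-amplified and Illumina-sequenced, with reads assigned to strains by barcodes. The protein stability index was obtained by summing each gate's read frequency weighted by its gate number.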

Sequence | protein stability index (doa10∆) | protein stability index (pdr5∆) | protein stability index (san1∆) | protein stability index (ubr1∆)
LLFWTDPRNLVNQTGST [YCG1] | 2.41 ± 0.065 | 2.66 ± 0.064 | 2.83 ± 0.055 | 2.81 ± 0.038
FISSNDAFNMLSLTTVP [SNF6] | 1.7 ± 0.054 | 2.44 ± 0.063 | 2.31 ± 0.11 | 2 ± 0.06
TDYFLPKNYSLHGLRSF [YJL039C/NUP192] | 1.96 ± 0.061 | 2.13 ± 0.065 | 2.12 ± 0.055 | 2.11 ± 0.064
DVKTAEEASQLIEYMEN [NUT1] | 2.91 ± 0.086 | 3.04 ± 0.099 | 3.05 ± 0.08 | 3.1 ± 0.064
KKKQQGAKQTQGGAMNK [SRP72] | 2.07 ± 0.12 | 2.54 ± 0.1 | 3.37 ± 0.082 | 3.58 ± 0.062
PAITIEKLKQFSWISVV [SIR3] | 1.16 ± 0.05 | 1.45 ± 0.055 | 1.24 ± 0.094 | 1.13 ± 0.035
TKPEVASDMSDEDIITI [CDC53] | 2.89 ± 0.14 | 2.56 ± 0.24 |  | 2.92 ± 0.12
RGREEAASFKKLYKTPI [PRE10] | 2.6 ± 0.17 | 3.06 ± 0.27 | 1.45 ± 0.2 | 2.97 ± 0.13
EEKPGLIITRKAFKNNS [SMC4] | 2.89 ± 0.086 | 2.88 ± 0.097 | 2.82 ± 0.064 | 2.94 ± 0.079
NYDTCGGESAYFFQLQI [RPC11] | 2.72 ± 0.2 | 2.75 ± 0.15 | 2.04 ± 0.14 | 2.94 ± 0.14
VQVRSVMDPITSKRKAE [DIS3] | 2 ± 0.13 | 2.41 ± 0.13 | 2.92 ± 0.079 | 2.79 ± 0.12
IDFAPTSPFGGARPGRV [RPS9A] | 2.82 ± 0.072 | 2.53 ± 0.074 | 2.62 ± 0.074 | 2.74 ± 0.05
KHGAVHLSTYLKVYKVG [RPL21A] | 1.76 ± 0.07 | 1.69 ± 0.077 | 1.27 ± 0.2 | 3.02 ± 0.065
HTSSSDGNNEIFTCQIM [RPN4] | 2.57 ± 0.094 | 2.89 ± 0.082 | 3.08 ± 0.064 | 2.86 ± 0.086
SLQNNLQNNINNSNNNN [SNF11] | 3.19 ± 0.078 | 3.27 ± 0.099 | 3.31 ± 0.066 | 3.29 ± 0.062
INDAGKAKKLIQSLPPT [RPL38] | 2.17 ± 0.047 | 2.38 ± 0.042 | 1.96 ± 0.059 | 2.56 ± 0.03
ILEDFRVIKDFKKLNSK [YMR153W/NUP53] | 3.15 ± 0.11 | 3.32 ± 0.12 | 3.58 ± 0.055 | 3.29 ± 0.063
ADEEEEIVDTYQEDIFV [ISW2] | 2.8 ± 0.11 | 2.67 ± 0.12 | 3.43 ± 0.12 | 2.48 ± 0.088
SAINQYNRRQDKKNKRL [SNF2] | 3.13 ± 0.083 | 3.34 ± 0.082 | 3.23 ± 0.074 | 3.25 ± 0.087
LLETKLRQQYEIELKKL [SWI1] | 3.01 ± 0.12 | 2.96 ± 0.1 | 3.17 ± 0.069 | 2.92 ± 0.11
QDHFHRLNYLYQISAYQ [RPR2] | 2 ± 0.041 | 2.43 ± 0.04 | 2.42 ± 0.044 | 2.43 ± 0.026
KPAFSFGATTNDDKKTE [YJL041W/NSP1] | 2.92 ± 0.099 | 3.07 ± 0.067 | 3.01 ± 0.058 | 2.89 ± 0.045
LFGSSNNNNNNNNSNNI [YGL172W/NUP49] | 2.93 ± 0.077 | 2.33 ± 0.056 | 2.53 ± 0.086 | 2.6 ± 0.097
TRTIKQNNFHVLIDLLN [RGR1] | 1.75 ± 0.079 | 1.62 ± 0.13 | 1.87 ± 0.15 | 1.86 ± 0.12
PEKTSTELVDGRENFVY [SIR3] | 3.08 ± 0.099 | 3.25 ± 0.15 | 3.1 ± 0.12 | 3 ± 0.088

Sequence | protein stability index (doa10∆) | protein stability index (pdr5∆) | protein stability index (san1∆) | protein stability index (ubr1∆)
KFKKEKFDIIIVDTSGR [SRP54] | 2.84 ± 0.046 | 3.01 ± 0.036 | 2.95 ± 0.034 | 3.1 ± 0.04
NMMEHWDYLQLTVAMYI [RPO31] | 2.08 ± 0.061 | 2.2 ± 0.063 | 2.4 ± 0.15 | 1.85 ± 0.063
VTMGAKDKLREFIPHST [RPN6] | 3.46 ± 0.11 | 3.1 ± 0.14 | 2.96 ± 0.099 | 3.04 ± 0.11
EGLNQRNQVQTENVAQA [YGR119C/NUP57] | 2.96 ± 0.12 | 2.89 ± 0.16 | 2.77 ± 0.095 | 2.65 ± 0.06
SSPYAAMLAAQDVAAKC [RPS14B] | 2.14 ± 0.055 | 1.42 ± 0.055 | 1.3 ± 0.082 | 1.73 ± 0.05
VQGLLQNAAANAEAKGL [RPL17A] | 2.3 ± 0.094 | 2.76 ± 0.1 | 2.06 ± 0.1 | 2.4 ± 0.12
APPLENENSNCLLSIPK [YML103C/NUP188] | 1.86 ± 0.058 | 1.92 ± 0.057 | 1.65 ± 0.16 | 1.71 ± 0.059
RALQENGIIMNGTLIGC [YMR153W/NUP53] | 1.88 ± 0.09 | 2.28 ± 0.071 | 2.93 ± 0.13 | 3.06 ± 0.066
LGPRGVSITPGKIEKIA [SRP21] | 2.02 ± 0.065 | 2.62 ± 0.049 | 1.98 ± 0.088 | 2.41 ± 0.039
KNVGNKSPEQCILRFLQ [SWI3] | 2.15 ± 0.062 | 2.67 ± 0.051 | 2.31 ± 0.083 | 1.84 ± 0.033
ELDPECQLQNSDNSEEE [RRP43] | 3.14 ± 0.075 | 2.95 ± 0.066 | 2.94 ± 0.054 | 3 ± 0.063
ILAMTYSENGKHDSLRY [RPN1] | 3.28 ± 0.23 |  | 2.73 ± 0.2 | 2.62 ± 0.29
PLAKKQTVRLIKDLQRA [SIR2] | 2.77 ± 0.08 | 3.01 ± 0.07 | 2.77 ± 0.057 | 2.97 ± 0.062
HGMTLRESFEDNVVRFL [RPO21] | 3.27 ± 0.098 | 3.09 ± 0.12 | 3.29 ± 0.089 | 3.17 ± 0.078
DNLLLNLEQINEDLEDG [REC8] | 2.81 ± 0.056 | 2.67 ± 0.066 | 2.71 ± 0.08 | 3.07 ± 0.061
LTDKDAFETHYRRLFAK [CDC53] | 2.94 ± 0.057 | 3.19 ± 0.067 | 2.97 ± 0.047 | 2.97 ± 0.043
FTMMTSEPLTLKVLSEH [PCI8] | 1.73 ± 0.056 | 1.96 ± 0.049 | 1.94 ± 0.095 | 1.54 ± 0.045
EFTKINTPLVGAAFKVI [YJL039C/NUP192] | 1.63 ± 0.039 | 1.91 ± 0.044 | 1.6 ± 0.084 | 1.69 ± 0.037
VDSRTKIRMLTQAAEFL [IRR1] | 2.47 ± 0.11 | 2.96 ± 0.084 | 1.78 ± 0.11 | 2.81 ± 0.079
YFLVLSPYGNLQNDLIH [RPN5] | 1.92 ± 0.091 | 2.42 ± 0.1 | 2.64 ± 0.089 | 2.67 ± 0.14
GNVIQFIYGEDGMDAAH [RPO21] | 2.89 ± 0.065 | 2.58 ± 0.06 | 3.2 ± 0.063 | 3.32 ± 0.042
ESNKRYRFFKKISEDPV [SNF12] | 3.16 ± 0.16 | 2.97 ± 0.16 | 2.99 ± 0.18 | 2.69 ± 0.061
LQQKQQQRFQALQQQQQ [SWI1] | 1.35 ± 0.057 | 1.53 ± 0.047 | 1.37 ± 0.083 | 1.56 ± 0.063
EQQVKEAEMAYVKAVSD [SMC4] | 3.21 ± 0.082 | 2.89 ± 0.093 | 2.83 ± 0.08 | 2.83 ± 0.069
VLRLKPGRKYTTLGKLS [RPL16A] | 2.83 ± 0.047 | 2.94 ± 0.05 | 2.86 ± 0.082 | 3.03 ± 0.051
